Data on one substance can be found in publication doi:10.1101/2022.06.30.497818.

This assay addresses GST-tagged CDK2 (human cyclin-dependent kinase 2, 1-298) (human) (UniProt P24941). The experiment in a line: SPR.

For “Bovine cyclin A (171-432 with a C-terminal 6His tag) (from UniProt P30274 171-430) (domain or fragment)”, the Kd (in general, the constant that tells how readily two partners part at equilibrium) stood at 2.8 nM.
